How the values were obtained:
Type in all cases: biochemical
[1] = Enzymatic synthesis of sLe^x by glycan gel electrophoresis, substrate A2[3]; settings: completed product sLe^x
Description: (§1) FIG. 21A. Schematic view of the enzymatic steps for Le^X and sLe^X synthesis on the antibody glycan G0. The glycan short names follow that of FIG. 10. FIG. 21B Kinetic comparison of galactosylation on G0 by B4GalT1, sialyation on G2 by ST3Gal4 and ST6Gal1, and fucosylation on A2[3] by FUT7. The reaction time for B4GalT1 was 10 minutes. The reaction time for ST3Gal4, FUT7 and ST6Gal1 was 5 hours. In each case, the labeling enzyme was subject to a 3-fold serial dilution starting from 1 μg each of B4GalT1, FUT7 and ST6Gal1, and 3 μg ST3Gal4. FIG. 21C. […] Reaction time for both cases was 20 minutes. […] FIG. 21D. […] Reaction time for both cases was 20 minutes.
(§2) For a typical labeling reaction, 1 μg to 5 μg target protein was mixed with 0.2 nmol fluorophore-conjugated GDP-fucose and 0.2 μg of a fucosyltransferase in 30μL 25 mM Tris pH 7.5, 10 mM MnCl2. The mixture was incubated at 37° C. for 30 minutes. […] To release labeled glycans from a glycoprotein, the sample was first denatured by heating at 95° C. for two minutes in the presence of 0.5% SDS and 80 mM β-mercaptoethanol and then renatured with 1% Triton X-100, and finally treated with PNGase F at 10:1 mass ratio at 37° C. for 20 minutes. To release glycans from antibody, a sample was directly treated with Endo S at 10:1 mass ratio at 37° C. for 20 minutes. All samples were separated by sodium dodecyl sulfate—polyacrylamide gel electrophoresis (SDS-PAGE) at […]. For separating labeled glycoproteins and antibodies, 4-20% gradient SDS gel was used. For separating labeled free glycans, 15% or 17% gel was used. After separation, all gels were imaged using a FluorChem M imager (ProteinSimple, Bio-Techne, Minneapolis, MN). For glycoproteins samples, the gel was also imaged with traditional methods such as silver staining or trichloroethanol (TCE) staining.
For sLe^x synthesis, G0 was first converted to G2 by B4GalT1, then converted to A2[3] by ST3Gal4, and finally converted to A2[3]F2 (carrier of sLe^x) by FUT7 (FIG. 21A). […]

[2] = Enzymatic synthesis of Le^x and sLe^x by glycan gel electrophoresis, substrate G2; settings: substrate G2, completed product Le^x
Description: as §1, §2
For sLe^x synthesis, G0 was first converted to G2 by B4GalT1, then converted to A2[3] by ST3Gal4, and finally converted to A2[3]F2 (carrier of sLe^x) by FUT7 (FIG. 21A). During these steps, different amounts of enzymes, and multiple reaction times were applied to reveal the intermediate products.
Intermediate products are signs for the progress of each enzymatic step.

[3] = test system: fetal bovine fetuin and asialofetuin; assay: Labeling of fetuin and asialofetuin by fucosyltransferases with GDP-Cy5-Fuc; settings: GDP-Cy5-Fuc donor, FIG. 9A
Description: FIG. 9A-FIG. 9B show exemplary results of probing substrate glycans of various fucosyltransferases on fetuin and asialofetuin. FIG. 9A. Probing substrate glycans of fucosyltransferases with guanosine 5′-diphosphate activated Cy5 conjugated fucose (GDP-Cy5-Fuc). […] FUT9 labeled itself (indicated by an arrow in the gel). FIG. 9B. Tolerance of Alexa-Fluor®555 (555), Alexa-Fluor®488 (488), and Cy5 by the indicated fucosyltransferases. All reactions were incubated at 37° C. for 30 minutes and then separated on SDS-PAGE and imaged with silver staining (upper panels) and fluorescent imager (lower panels). M, molecular marker.
For a typical labeling reaction, 1 μg to 5 μg target protein was mixed with 0.2 nmol GDP-f-Fuc and 0.2 μg of a fucosyltransferase in 30 μL buffer of 25 mM Tris pH 7.5, 10 mM MnCl2. The mixture was incubated at 37° C. for 30 minutes. The reaction was then separated by sodium dodecyl sulfate—polyacrylamide gel electrophoresis (SDS-PAGE) and the gel was directly imaged using a fluorescent imager FluorChem M ProteinSimple, Bio-Techne, Minneapolis, MN), followed by imaging with traditional protein imaging methods such as silver staining or trichloroethanol (TCE) staining.
The labeled samples were then separated on SDS-PAGE, followed by traditional protein gel imaging and fluorescent imaging.

B1: FUT6: recombinant α-3 fucosyltransferase active on lactosamine and sialyllactosamine (protein, UniProt P51993 1-359, looked up)
4-galactosyl-N-acetylglucosami …: MDPLGPAKPQWSWRCCLTTLLFQLLMAVCFFSYLRVSQDDPTVYPNGSRFPDSTGTPAHSIPLILLWTWPFNKPIALPRCSEMVPGTADCNITADRKVYPQADAVIVHHREVMYNPSAQLPRSPRRQGQRWIWFSMESPSHCWQLKAMDGYFNLTMSYRSDSDIFTPYGWLEPWSGQPAHPPLNLSAKTELVAWAVSNWGPNSARVRYYQSLQAHLKVDVYGRSHKPLPQGTMMETLSRYKFYLAFENSLHPDYITEKLWRNALEAWAVPVVLGPSRSNYERFLPPDAFIHVDDFQSPKDLARYLQELDKDHARYLSYFRWRETLRPRSFSWALAFCKACWKLQEESRYQTRGIAAWFT
Question: What does the source list for B1?
Answer: Activity based on reaction completion [1]: 13.5 pmol/min/µg; Activity based on reaction completion [2]: 2.3 pmol/min/µg; Which of fetuin and asialofetuin the fucosyltransferase labeled [3]: labeled both fetuin and asialofetuin

Reference: patent US20240168030A1, “DIRECT FLUORESCENT GLYCAN LABELING” (BIO-TECHNE CORPORATION, priority 2019, published 2024)
